Results reported in the supplement of paper PMC9112550, “Optimization of the antimicrobial peptide Bac7 by deep mutational scanning” (BMC Biology, 2022).

System: Escherichia coli TOP10
Assay: shrunken log2 fold change of peptide-encoding DNA abundance (4.5 h post-induction vs induction); higher = less antimicrobial activity (less host growth inhibition)
Conditions: time post-induction: 4.5 h; library: site-saturation at positions 5, 18, 19, 20
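Note: peptides expressed intracellularly from a pBAD plasmid library in pooled LB shake-flask culture, induced with 0.3% L-arabinose, DNA abundance read by NGS, three biological replicates, DESeq2 with apeglm shrinkage.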

Sequence	shrunken log2 fold change
RRIRIRPPRLPRPRPRPYFMPRP	-1.21
RRIRYRPPRLPRPRPRPDNMPRP	-0.0223
RRIRMRPPRLPRPRPRPMRDPRP	1.3
RRIRCRPPRLPRPRPRPPWWPRP	2.01
RRIRSRPPRLPRPRPRPCEQPRP	0.000312
RRIRCRPPRLPRPRPRPDIDPRP	-0.182
RRIRYRPPRLPRPRPRPLQLPRP	-1.13
RRIRERPPRLPRPRPRPKEMPRP	-0.192
RRIRYRPPRLPRPRPRPCNWPRP	-0.0748
RRIRCRPPRLPRPRPRPQRQPRP	0.0683
RRIRARPPRLPRPRPRPTYEPRP	0.179
RRIRQRPPRLPRPRPRPLFEPRP	0.0725
RRIRWRPPRLPRPRPRPFCGPRP	0.437
RRIRIRPPRLPRPRPRPQWYPRP	-0.485
RRIRLRPPRLPRPRPRPYIKPRP	-0.882
RRIRGRPPRLPRPRPRPIDCPRP	-0.00142
RRIRMRPPRLPRPRPRPPQAPRP	1.06
RRIRYRPPRLPRPRPRPFCIPRP	-1.5
RRIRWRPPRLPRPRPRPSWKPRP	-0.0536
RRIRARPPRLPRPRPRPEKVPRP	0.131
RRIRTRPPRLPRPRPRPYGSPRP	-0.154
RRIRCRPPRLPRPRPRPQICPRP	0.0827
RRIRVRPPRLPRPRPRPAHNPRP	-0.296
RRIRGRPPRLPRPRPRPMRRPRP	1.25
RRIRGRPPRLPRPRPRPNGSPRP	-0.0904

Sequence	shrunken log2 fold change
RRIRLRPPRLPRPRPRPKKLPRP	0.111
RRIRHRPPRLPRPRPRPAANPRP	-0.0763
RRIRHRPPRLPRPRPRPYMGPRP	-0.201
RRIRYRPPRLPRPRPRPPVYPRP	-0.406
RRIRQRPPRLPRPRPRPAKCPRP	0.0161
RRIRNRPPRLPRPRPRPGVAPRP	0.135
RRIRYRPPRLPRPRPRPETIPRP	-0.495
RRIRGRPPRLPRPRPRPMSSPRP	-0.154
RRIRFRPPRLPRPRPRPVWAPRP	0.137
RRIRLRPPRLPRPRPRPSQPPRP	-0.0367
RRIRNRPPRLPRPRPRPRVKPRP	0.139
RRIRCRPPRLPRPRPRPQDPPRP	-0.0952
RRIRNRPPRLPRPRPRPSSCPRP	-0.063
RRIRARPPRLPRPRPRPTFFPRP	0.197
RRIRMRPPRLPRPRPRPEQMPRP	2.44
RRIRWRPPRLPRPRPRPMIMPRP	-0.0612
RRIRRRPPRLPRPRPRPVQTPRP	0.178
RRIRGRPPRLPRPRPRPSKGPRP	-0.403
RRIRRRPPRLPRPRPRPMGNPRP	0.0273
RRIRNRPPRLPRPRPRPAQCPRP	-0.0739
RRIRLRPPRLPRPRPRPLICPRP	0.128
RRIRPRPPRLPRPRPRPAPMPRP	0.284
RRIRKRPPRLPRPRPRPPNWPRP	0.593
RRIRMRPPRLPRPRPRPKENPRP	1.9
RRIRHRPPRLPRPRPRPGQKPRP	0.00748

Sequence	shrunken log2 fold change
RRIRARPPRLPRPRPRPEHKPRP	0.0692
RRIRRRPPRLPRPRPRPDMFPRP	0.0219
RRIRQRPPRLPRPRPRPIEAPRP	-0.00454
RRIRPRPPRLPRPRPRPTVQPRP	0.182
RRIRQRPPRLPRPRPRPMAWPRP	-0.128
RRIRSRPPRLPRPRPRPDCHPRP	-0.0994
RRIRSRPPRLPRPRPRPRDGPRP	1.5
RRIRWRPPRLPRPRPRPEHMPRP	-0.122
RRIRARPPRLPRPRPRPQTRPRP	0.874
RRIRQRPPRLPRPRPRPTQRPRP	0.548
RRIRQRPPRLPRPRPRPEMMPRP	0.151
RRIRKRPPRLPRPRPRPLREPRP	0.718
RRIRKRPPRLPRPRPRPRGVPRP	0.782
RRIRTRPPRLPRPRPRPVVPPRP	-0.314
RRIRNRPPRLPRPRPRPAQLPRP	-0.207
RRIRYRPPRLPRPRPRPQDDPRP	-0.0017
RRIRPRPPRLPRPRPRPFAYPRP	-0.135
RRIRKRPPRLPRPRPRPSFYPRP	-0.391
RRIRNRPPRLPRPRPRPMGIPRP	-0.454
RRIRNRPPRLPRPRPRPKQEPRP	0.0268
RRIRGRPPRLPRPRPRPVVDPRP	0.873
RRIRTRPPRLPRPRPRPTISPRP	-0.488
RRIRTRPPRLPRPRPRPQGRPRP	-0.0678
RRIRFRPPRLPRPRPRPWFRPRP	-0.151
RRIRYRPPRLPRPRPRPAALPRP	-0.478

Sequence	shrunken log2 fold change
RRIRARPPRLPRPRPRPLPIPRP	0.205
RRIRPRPPRLPRPRPRPTRFPRP	0.41
RRIRIRPPRLPRPRPRPRNFPRP	-0.283
RRIRARPPRLPRPRPRPLALPRP	0.668
RRIRFRPPRLPRPRPRPRDIPRP	-0.11
RRIRERPPRLPRPRPRPLRKPRP	0.722
RRIRSRPPRLPRPRPRPQETPRP	0.0728
RRIRYRPPRLPRPRPRPLDTPRP	-0.429
RRIRMRPPRLPRPRPRPHTVPRP	-0.0708
RRIRYRPPRLPRPRPRPCFWPRP	-0.136
RRIRVRPPRLPRPRPRPNPEPRP	-0.286
RRIRMRPPRLPRPRPRPPTEPRP	0.413
RRIRPRPPRLPRPRPRPMPPPRP	0.194
RRIRFRPPRLPRPRPRPEITPRP	-0.208
RRIRTRPPRLPRPRPRPQGPPRP	0.0175
RRIRWRPPRLPRPRPRPQPCPRP	0.179
RRIRARPPRLPRPRPRPMNVPRP	-0.163
RRIRVRPPRLPRPRPRPYRKPRP	-0.259
RRIRGRPPRLPRPRPRPHQIPRP	0.103
RRIRHRPPRLPRPRPRPSCKPRP	-0.609
RRIRERPPRLPRPRPRPKQIPRP	0.169
RRIRDRPPRLPRPRPRPYWAPRP	-0.0312
RRIRSRPPRLPRPRPRPCFIPRP	-0.688
RRIRFRPPRLPRPRPRPDVRPRP	0.0165
RRIRIRPPRLPRPRPRPFGDPRP	-0.0112

Sequence	shrunken log2 fold change
RRIRTRPPRLPRPRPRPSIMPRP	-0.827
RRIRSRPPRLPRPRPRPCGTPRP	0.202
RRIRKRPPRLPRPRPRPLIEPRP	0.105
RRIRFRPPRLPRPRPRPWGLPRP	-0.168
RRIRSRPPRLPRPRPRPKVGPRP	0.176
RRIRERPPRLPRPRPRPYSGPRP	-0.218
RRIRCRPPRLPRPRPRPDILPRP	-0.0877
RRIRVRPPRLPRPRPRPFSWPRP	-0.144
RRIRARPPRLPRPRPRPGTCPRP	0.153
RRIRYRPPRLPRPRPRPKCLPRP	-0.245
RRIRRRPPRLPRPRPRPDKPPRP	0.583
RRIRCRPPRLPRPRPRPYIFPRP	-0.773
RRIRMRPPRLPRPRPRPCQFPRP	0.0126
RRIRARPPRLPRPRPRPEHEPRP	0.00993
RRIRPRPPRLPRPRPRPAVDPRP	0.249
RRIRERPPRLPRPRPRPMMTPRP	-0.067
RRIRPRPPRLPRPRPRPPMDPRP	0.126
RRIRTRPPRLPRPRPRPFQKPRP	-0.0018
RRIRGRPPRLPRPRPRPEIKPRP	1.24
RRIRGRPPRLPRPRPRPKMWPRP	0.868
RRIRGRPPRLPRPRPRPGLCPRP	0.957
RRIRYRPPRLPRPRPRPFKWPRP	-0.278
RRIRQRPPRLPRPRPRPLFSPRP	-0.258
RRIRYRPPRLPRPRPRPCYHPRP	-0.289
RRIRTRPPRLPRPRPRPPYWPRP	0.0831

Sequence	shrunken log2 fold change
RRIRIRPPRLPRPRPRPGPHPRP	0.0135
RRIRPRPPRLPRPRPRPWCCPRP	-0.0996
RRIRFRPPRLPRPRPRPYFWPRP	-0.241
RRIRARPPRLPRPRPRPRYSPRP	-0.121
RRIRRRPPRLPRPRPRPVMMPRP	-0.0277
RRIRNRPPRLPRPRPRPFFEPRP	-0.0529
RRIRGRPPRLPRPRPRPNDLPRP	0.338
RRIRMRPPRLPRPRPRPDLKPRP	0.751
RRIRLRPPRLPRPRPRPTREPRP	0.794
RRIRFRPPRLPRPRPRPRLDPRP	0.0416
RRIRIRPPRLPRPRPRPHENPRP	-0.581
RRIRRRPPRLPRPRPRPRFYPRP	-0.237
RRIRYRPPRLPRPRPRPLYDPRP	-0.51
RRIRGRPPRLPRPRPRPSCFPRP	0.504
RRIRGRPPRLPRPRPRPAYTPRP	-0.166
RRIRWRPPRLPRPRPRPTKLPRP	0.156
RRIRRRPPRLPRPRPRPSTTPRP	0.00373
RRIRWRPPRLPRPRPRPMFGPRP	-0.0457
RRIRQRPPRLPRPRPRPMNPPRP	-0.0843
RRIRARPPRLPRPRPRPYAIPRP	2.12
RRIRLRPPRLPRPRPRPILAPRP	-0.0814
RRIRLRPPRLPRPRPRPKMSPRP	-0.0245
RRIRLRPPRLPRPRPRPFLRPRP	-0.429
RRIRFRPPRLPRPRPRPKISPRP	-0.596
RRIRIRPPRLPRPRPRPHTDPRP	-0.777
